Reference: US20250215104A1 (WALDEN BIOSCIENCES, published 2025)
Changes are numbered by the printed parent chain.

B1: suPAR_DB04_D09 (scFv, V domains shown)
VH: QVQLVQSGAEVKKPGASVKVSCKASGYTFTAYYMHWVRQAPGQGLEWMGWIDHENGNTIYDQKFQGRVTMTRDTSTSTVYMELSSLRSEDTAVYYCARGYDVDWFVYWGQGTLVTVSS
VL: DIQMTQSPSSLSASVGDRVTITCSARSSVSYMYWYQQKPGKAPKLLIYRTSNLASGVPSRFSGSGSGTDFTLTISSLQPEDFATYYCQQYHSYPPTFGGGTKVEIK
notes: scFv clone from phage display
B2: suPAR_DB04_C03 (scFv, V domains shown)
VH: B1 VH with A31S, H53P, N57S, R98S
VL: B1 VL
notes: scFv clone from phage display
B3: suPAR_DB04_C06 (scFv, V domains shown)
VH: B1 VH with T30S, M34I, Y100N
VL: B1 VL with S27Q, A54Q
notes: scFv clone from phage display
B4: suPAR_DB04_C07 (scFv, V domains shown)
VH: B1 VH with A31S, E54S, Y100D
VL: B1 VL
notes: scFv clone from phage display
B5: suPAR_DB04_C05 (scFv, V domains shown)
VH: B1 VH with Y27H, F29L, T30N, A31S
VL: B1 VL
notes: scFv clone from phage display
B6: suPAR_DB04_C02 (scFv, V domains shown)
VH: B1 VH with Y27N, T30I, A31G, M34V, I59S, Y100N
VL: B1 VL
notes: scFv clone from phage display
B7: suPAR_DB04_C04 (scFv, V domains shown)
VH: B1 VH with A31G, I59S
VL: B1 VL with R26S, S27Q
notes: scFv clone from phage display
B8: suPAR_DB03_C08 (scFv, V domains shown)
VH: B1 VH with Y27G, A31N, N57S, D61A
VL: B1 VL with N52S
notes: screened as scFv
B9: suPAR_DB03_E09 (scFv, V domains shown)
VH: QVQLVQSGAEVKKPGASVKVSCKASGFNIKDYYIHWVRQAPGQGLEWMGWIDPNSGGTNYAQKFQGRVTMTRDTSTSTVYMELSSLRSEDTAVYYCARGYDVDWFVYWGQGTLVTVSS
VL: B1 VL with S24R, S27Q
notes: screened as scFv
B10: suPAR_DB03_D08 (scFv, V domains shown)
VH: B1 VH with A31G, H53P, N57S
VL: B1 VL with S27Q
notes: screened as scFv
B11: suPAR_DB03_D07 (scFv, V domains shown)
VH: B1 VH with Y27N, A31N, M34V, H53P, E54S
VL: B1 VL
notes: screened as scFv
B12: suPAR_DB03_E06 (scFv, V domains shown)
VH: B1 VH with A31G, Y32Q, M34V
VL: B1 VL
notes: screened as scFv
B13: suPAR_DB03_C10 (scFv, V domains shown)
VH: B1 VH with A31S, N55G, N57S, D61A, R98S
VL: B1 VL
notes: screened as scFv
B14: suPAR_DB03_C12 (scFv, V domains shown)
VH: B1 VH with Y27N, A31N, I59S
VL: B1 VL
notes: screened as scFv
B15: suPAR_DB03_D06 (scFv, V domains shown)
VH: B1 VH with T28S, A31N, I59S, D61A
VL: B1 VL
notes: screened as scFv
B16: suPAR_DB03_E02 (scFv, V domains shown)
VH: B1 VH with T28N, A31G, M34I, D61A
VL: B1 VL
notes: screened as scFv
B17: suPAR_DB03_D02 (scFv, V domains shown)
VH: B1 VH with A31R, M34L, H53P, D61A
VL: B1 VL
notes: screened as scFv
B18: suPAR_DB03_E08 (scFv, V domains shown)
VH: B1 VH with A31H, H53P, N55G, N57S
VL: B1 VL with S24R, R26S
notes: screened as scFv
B19: suPAR_DB03_E03 (scFv, V domains shown)
VH: B1 VH with F29V, A31N
VL: B1 VL with S24R
notes: screened as scFv
B20: suPAR_DB03_D03 (scFv, V domains shown)
VH: B1 VH with A31G, M34I, H53P, D61A
VL: B1 VL with S24R, S27Q
notes: screened as scFv
B21: suPAR_DB03_E04 (scFv, V domains shown)
VH: B1 VH with A31G, Y32H, H53P, N57S
VL: B1 VL
notes: screened as scFv
B22: suPAR_DB03_D09 (scFv, V domains shown)
VH: B1 VH with A31G, N57S, D61A
VL: B1 VL with A54Q
notes: screened as scFv
B23: suPAR_DB03_D04 (scFv, V domains shown)
VH: B1 VH with A31N, H53P, N57S
VL: B1 VL with Y90S
notes: screened as scFv
B24: suPAR_DB03_C09 (scFv, V domains shown)
VH: B1 VH with A31S, N57S
VL: B1 VL with S27Q
notes: screened as scFv
B25: suPAR_DB03_D12 (scFv, V domains shown)
VH: B1 VH with T30S, A31N, H53P, D61A
VL: B1 VL with S24R, A54Q
notes: screened as scFv
B26: suPAR_DB03_D10 (scFv, V domains shown)
VH: B1 VH with A31S, H53P, D61A
VL: B1 VL with A54Q
notes: screened as scFv
B27: suPAR_DB03_D05 (scFv, V domains shown)
VH: B1 VH with Y27D, T28N, A31T, H53P, D61A
VL: B1 VL
notes: screened as scFv
B28: suPAR_DB03_D01 (scFv, V domains shown)
VH: B9 VH with I51M
VL: B1 VL
notes: screened as scFv

Molecular target: T1, human soluble urokinase plasminogen activator receptor (hsuPAR) (human, UniProt Q03405 23-303, limits assumed)
T1 construct: also called human suPAR; rhuPAR-His
Experiment: off-rate screen of scFv clones (kdis), Octet BLI
T1 sequence (Q03405 23-303 limits assumed): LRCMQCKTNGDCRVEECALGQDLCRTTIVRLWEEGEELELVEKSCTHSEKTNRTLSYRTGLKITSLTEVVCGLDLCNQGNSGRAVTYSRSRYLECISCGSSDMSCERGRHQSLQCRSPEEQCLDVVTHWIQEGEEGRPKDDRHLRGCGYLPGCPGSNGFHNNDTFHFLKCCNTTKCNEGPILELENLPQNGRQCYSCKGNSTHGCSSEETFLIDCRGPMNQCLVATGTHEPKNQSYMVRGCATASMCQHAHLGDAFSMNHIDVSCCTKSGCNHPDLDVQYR

Question: With B1 as the binder, how does the koff read?
Answer: 0.00203 s⁻¹

Question: With B2 as the binder, how does the koff read?
Answer: 0.00368 s⁻¹

Question: Which koff does the source give for B3 here?
Answer: 0.00412 s⁻¹

Question: B4 was tested. Which koff did it give?
Answer: 0.0031 s⁻¹

Question: How did the koff turn out when B5 was run?
Answer: 0.00245 s⁻¹

Question: For B6, which koff is on record?
Answer: 0.00411 s⁻¹

Question: For B7, which koff is on record?
Answer: 0.00229 s⁻¹

Molecular target: T2, cynomolgus soluble urokinase plasminogen activator receptor (cynomolgus suPAR) (cynomolgus, UniProt Q9GK78 23-303, limits assumed)
T2 construct: also called cynomolgus uPAR; cynoPLAUR-His
Experiment: off-rate screen of scFv clones (kdis), Octet BLI

T2 sequence (Q9GK78 23-303 limits assumed): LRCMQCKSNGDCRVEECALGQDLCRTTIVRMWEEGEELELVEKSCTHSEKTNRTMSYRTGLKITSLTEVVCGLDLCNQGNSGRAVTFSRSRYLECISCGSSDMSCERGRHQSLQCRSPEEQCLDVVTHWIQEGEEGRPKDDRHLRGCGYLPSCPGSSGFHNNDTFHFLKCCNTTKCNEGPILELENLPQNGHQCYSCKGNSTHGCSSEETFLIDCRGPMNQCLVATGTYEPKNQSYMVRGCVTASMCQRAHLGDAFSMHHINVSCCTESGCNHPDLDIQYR

Question: Which koff does the source give for B1 here?
Answer: 0.000206 s⁻¹

Question: For B2, which koff is on record?
Answer: 0.000158 s⁻¹

Question: For B3, which koff is on record?
Answer: 4.14e-05 s⁻¹

Question: With B4 as the binder, how does the koff read?
Answer: 0.000249 s⁻¹

Question: B5 was tested. Which koff did it give?
Answer: 0.000421 s⁻¹

Question: B6 was tested. Which koff did it give?
Answer: 0.000146 s⁻¹

Question: How did the koff turn out when B7 was run?
Answer: 0.000384 s⁻¹

Molecular target: T3, human soluble urokinase plasminogen activator receptor (hsuPAR) (human, UniProt Q03405 23-303, limits assumed)
T3 construct: Target antigen of the off-rate screen; also called human suPAR; rhuPAR-His
Experiment: BLI (Octet) off-rate screen of scFv clones
T3 sequence (Q03405 23-303 limits assumed): as the sequence (Q03405 23-303 limits assumed) above

Question: Which koff does the source give for B8 here?
Answer: 0.00103 s⁻¹

Question: B9 was tested. Which koff did it give?
Answer: 0.00426 s⁻¹

Question: With B10 as the binder, how does the koff read?
Answer: 0.00458 s⁻¹

Question: How did the koff turn out when B11 was run?
Answer: 0.00308 s⁻¹

Question: With B12 as the binder, how does the koff read?
Answer: 0.0044 s⁻¹

Question: B13 was tested. Which koff did it give?
Answer: 0.00452 s⁻¹

Question: How did the koff turn out when B14 was run?
Answer: 0.00396 s⁻¹

Question: How did the koff turn out when B15 was run?
Answer: 0.00295 s⁻¹

Question: For B16, which koff is on record?
Answer: 0.00358 s⁻¹

Question: For B17, which koff is on record?
Answer: 0.00755 s⁻¹

Question: For B18, which koff is on record?
Answer: 0.005 s⁻¹

Question: Which koff does the source give for B19 here?
Answer: 0.00231 s⁻¹

Question: With B20 as the binder, how does the koff read?
Answer: 0.00258 s⁻¹

Question: How did the koff turn out when B21 was run?
Answer: 0.00556 s⁻¹

Question: For B22, which koff is on record?
Answer: 0.000746 s⁻¹

Question: With B23 as the binder, how does the koff read?
Answer: 0.00325 s⁻¹

Question: With B24 as the binder, how does the koff read?
Answer: 0.00103 s⁻¹

Question: With B25 as the binder, how does the koff read?
Answer: 0.0057 s⁻¹

Question: For B26, which koff is on record?
Answer: 0.00527 s⁻¹

Question: How did the koff turn out when B27 was run?
Answer: 0.00482 s⁻¹

Question: B28 was tested. Which koff did it give?
Answer: 0.00416 s⁻¹

Molecular target: T4, cynomolgus suPAR (cynomolgus, UniProt Q9GK78 23-303, limits assumed)
T4 construct: Target antigen of the off-rate screen; also called cynomolgus uPAR; cynoPLAUR-His
Experiment: BLI (Octet) off-rate screen of scFv clones

T4 sequence (Q9GK78 23-303 limits assumed): as the sequence (Q9GK78 23-303 limits assumed) above

Question: For B8, which koff is on record?
Answer: 9.98e-05 s⁻¹

Question: B9 was tested. Which koff did it give?
Answer: 0.000132 s⁻¹

Question: B10 was tested. Which koff did it give?
Answer: 0.000482 s⁻¹

Question: B11 was tested. Which koff did it give?
Answer: 0.000163 s⁻¹

Question: How did the koff turn out when B12 was run?
Answer: 7.36e-05 s⁻¹

Question: How did the koff turn out when B13 was run?
Answer: 0.000301 s⁻¹

Question: Which koff does the source give for B14 here?
Answer: 7.59e-05 s⁻¹

Question: For B15, which koff is on record?
Answer: 0.000388 s⁻¹

Question: B16 was tested. Which koff did it give?
Answer: 0.000258 s⁻¹

Question: For B17, which koff is on record?
Answer: 0.000241 s⁻¹

Question: For B18, which koff is on record?
Answer: 0.00025 s⁻¹

Question: How did the koff turn out when B19 was run?
Answer: 0.000132 s⁻¹

Question: For B20, which koff is on record?
Answer: 0.000156 s⁻¹

Question: How did the koff turn out when B21 was run?
Answer: 0.000669 s⁻¹

Question: Which koff does the source give for B22 here?
Answer: 0.000508 s⁻¹

Question: B23 was tested. Which koff did it give?
Answer: 0.0059 s⁻¹

Question: B24 was tested. Which koff did it give?
Answer: 3.75e-07 s⁻¹

Question: For B25, which koff is on record?
Answer: 0.000263 s⁻¹

Question: B26 was tested. Which koff did it give?
Answer: 0.000286 s⁻¹

Question: How did the koff turn out when B27 was run?
Answer: 3.55e-05 s⁻¹

Question: B28 was tested. Which koff did it give?
Answer: 8.49e-05 s⁻¹
